Source: patent publication US20250313605A1

Target: human GIP receptor (human) (UniProt P48546)
Assay: cell-based or functional assay

Chain of human GIP receptor (human) (P48546 22-466): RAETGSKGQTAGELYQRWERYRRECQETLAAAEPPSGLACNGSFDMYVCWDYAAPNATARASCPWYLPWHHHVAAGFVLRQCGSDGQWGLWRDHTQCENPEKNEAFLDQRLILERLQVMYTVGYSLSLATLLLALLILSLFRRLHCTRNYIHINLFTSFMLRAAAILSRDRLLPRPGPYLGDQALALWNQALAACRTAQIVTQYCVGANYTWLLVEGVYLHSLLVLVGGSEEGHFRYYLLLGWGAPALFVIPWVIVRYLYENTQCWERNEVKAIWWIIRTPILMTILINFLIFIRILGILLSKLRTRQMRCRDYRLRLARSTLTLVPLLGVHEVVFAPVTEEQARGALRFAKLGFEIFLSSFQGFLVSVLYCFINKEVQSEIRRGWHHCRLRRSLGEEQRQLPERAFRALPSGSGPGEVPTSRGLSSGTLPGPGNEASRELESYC

- cAMP EC50 (0.1% casein): 0.154 nM
- cAMP EC50 (FBS and BSA present): 0.133 nM
Substance: human GIP (1-42)NH2 (from UniProt P09681 52-93) (ligand)
